Assay results published in patent US20200181263A1 (NUMAB THERAPEUTICS, published 2020).

T1: cyno CD3 (cyno, UniProt Q95LI5 22-117)
T1 sequence (looked up): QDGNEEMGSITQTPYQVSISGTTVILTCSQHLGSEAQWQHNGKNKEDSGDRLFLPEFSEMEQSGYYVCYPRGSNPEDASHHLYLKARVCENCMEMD

T2: human IL-23 receptor ECD (human, UniProt Q5VWK5 24-355)
T2 construct: extracellular domain
T2 sequence (looked up): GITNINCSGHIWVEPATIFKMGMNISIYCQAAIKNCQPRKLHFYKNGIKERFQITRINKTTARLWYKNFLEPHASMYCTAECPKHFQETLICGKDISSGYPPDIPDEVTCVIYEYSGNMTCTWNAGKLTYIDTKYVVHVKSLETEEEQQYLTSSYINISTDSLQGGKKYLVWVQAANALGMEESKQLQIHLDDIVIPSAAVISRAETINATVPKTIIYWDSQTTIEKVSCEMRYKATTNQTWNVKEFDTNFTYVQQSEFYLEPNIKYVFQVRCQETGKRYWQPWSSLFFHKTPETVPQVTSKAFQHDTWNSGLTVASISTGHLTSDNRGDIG

B1: PRO733 (other)
chain 1: DIQMTQSPSSLSASVGDRVTITCQASENIYSFLAWYQQKPGKAPKLLIYSASKLAAGVPSRFSGSGSGTDFTLTISSLQPEDFATYYCQQTNRYSNPDIYNVFGTGTKVTVLGGGGGSGGGGSGGGGSGGGGSEVQLVESGGGLVQPGGSLRLSCAASGIDFNSNYYMCWVRQAPGKGLEWIGCIYVGSHVNTYYANWAKGRFTISRDNSKNTVYLQMNSLRAEDTAVYYCATSGSSVLYFKFWGQGTLVTVSSGGGGSGGGGSDIQMTQSPSSLSASVGDRVTITCQSSESVYNNKRLSWYQQKPGKAPKLLIYTASSLASGVPSRFSGSGSGTDFTLTISSLQPEDFATYYCQGEFTCSNADCFTFGCGTKVTVLGSGGGGSGGGGSDIQMTQSPSSLSASVGDRVTITCQSSESVYSNNQLSWYQQKPGQPPKLLIYDASDLASGVPSRFSGSGSGTDFTLTISSLQPEDFATYYCAGGFSSSSDTAFGGGTKLTVLG
chain 2: DIQMTQSPSSLSASVGDRVTITCQASENIYSFLAWYQQKPGKAPKLLIYSASKLAAGVPSRFSGSGSGTDFTLTISSLQPEDFATYYCQQTNRYSNPDIYNVFGTGTKVTVLGGGGGSGGGGSGGGGSGGGGSEVQLVESGGGLVQPGGSLRLSCAASGIDFNSNYYMCWVRQAPGKGLEWIGCIYVGSHVNTYYANWAKGRFTISRDNSKNTVYLQMNSLRAEDTAVYYCATSGSSVLYFKFWGQGTLVTVSSGGGGSGGGGSEVQLVESGGGLVQPGGSLRLSCAASGFPLSSYAMIWVRQAPGKCLEWIGMILRAGNIYYASWVKGRFTISRDNSKNTVYLQMNSLRAEDTAVYYCARRHYNREGYPIGIGDLWGQGTLVTVSSSGGGGSGGGGSEVQLVESGGGLVQPGGSLRLSCAASGFSLSSNAMGWVRQAPGKGLEYIGIISVGGFTYYASWAKGRFTISRDNSKNTVYLQMNSLRAEDTATYFCARDRHGGDSSGAFYLWGQGTLVTVSS
notes: Hetero-dimeric MATCH, parallel; diS in anti-CD3 domain, 11 aa GS-linker, alternative anti-CD3
B2: PRO747 (other)
chain 1: DIQMTQSPSSLSASVGDRVTITCQASENIYSFLAWYQQKPGKAPKLLIYSASKLAAGVPSRFSGSGSGTDFTLTISSLQPEDFATYYCQQTNRYSNPDIYNVFGTGTKVTVLGGGGGSGGGGSGGGGSGGGGSEVQLVESGGGLVQPGGSLRLSCAASGIDFNSNYYMCWVRQAPGKGLEWIGCIYVGSHVNTYYANWAKGRFTISRDNSKNTVYLQMNSLRAEDTAVYYCATSGSSVLYFKFWGQGTLVTVSSGGGGSGGGGSDIQMTQSPSSLSASVGDRVTITCQSSQSVFSNNYLAWFQQKPGQSPKRLIYSASTLASGVPSRFSGSGSGTDFTLTISSLQPEDFATYYCLGSYACSSADCYVFGCGTKVTVLGAEAAAKEAAAKADIQMTQSPSSLSASVGDRVTITCQSSESVYSNNQLSWYQQKPGQPPKLLIYDASDLASGVPSRFSGSGSGTDFTLTISSLQPEDFATYYCAGGFSSSSDTAFGGGTKLTVLG
chain 2: DIQMTQSPSSLSASVGDRVTITCQASENIYSFLAWYQQKPGKAPKLLIYSASKLAAGVPSRFSGSGSGTDFTLTISSLQPEDFATYYCQQTNRYSNPDIYNVFGTGTKVTVLGGGGGSGGGGSGGGGSGGGGSEVQLVESGGGLVQPGGSLRLSCAASGIDFNSNYYMCWVRQAPGKGLEWIGCIYVGSHVNTYYANWAKGRFTISRDNSKNTVYLQMNSLRAEDTAVYYCATSGSSVLYFKFWGQGTLVTVSSGGGGSGGGGSEVQLVESGGGLVQPGGSLRLSCAASGFSLSSNAMGWVRQAPGKGLEYIGIISVGGFTYYASWAKGRFTISRDNSKNTVYLQMNSLRAEDTATYFCARDRHGGDSSGAFYLWGQGTLVTVSSAEAAAKEAAAKAEVQLVESGGGLVQPGGSLRLSCAASGFSLSSYDMSWVRQAPGKCLAWIGASYASGPTYYASWAKGRFTISRDNSKNTVYLQMNSLRAEDTATYFCARGGWTGTSHSNIWGQGTLVTVSS
notes: Hetero-dimeric MATCH, anti-parallel; diS in anti-CD3 domain, helical linker
B3: PRO736 (other)
chain 1: DIQMTQSPSSLSASVGDRVTITCQASENIYSFLAWYQQKPGKAPKLLIYSASKLAAGVPSRFSGSGSGTDFTLTISSLQPEDFATYYCQQTNRYSNPDIYNVFGTGTKVTVLGGGGGSGGGGSGGGGSGGGGSEVQLVESGGGLVQPGGSLRLSCAASGIDFNSNYYMCWVRQAPGKGLEWIGCIYVGSHVNTYYANWAKGRFTISRDNSKNTVYLQMNSLRAEDTAVYYCATSGSSVLYFKFWGQGTLVTVSSGGGGSGGGGSDIQMTQSPSSLSASVGDRVTITCQSSQSVFSNNYLAWFQQKPGQSPKRLIYSASTLASGVPSRFSGSGSGTDFTLTISSLQPEDFATYYCLGSYACSSADCYVFGCGTKVTVLGGGGGSGGGGSGGGGSDIQMTQSPSSLSASVGDRVTITCQSSESVYSNNQLSWYQQKPGQPPKLLIYDASDLASGVPSRFSGSGSGTDFTLTISSLQPEDFATYYCAGGFSSSSDTAFGGGTKLTVLG
chain 2: DIQMTQSPSSLSASVGDRVTITCQASENIYSFLAWYQQKPGKAPKLLIYSASKLAAGVPSRFSGSGSGTDFTLTISSLQPEDFATYYCQQTNRYSNPDIYNVFGTGTKVTVLGGGGGSGGGGSGGGGSGGGGSEVQLVESGGGLVQPGGSLRLSCAASGIDFNSNYYMCWVRQAPGKGLEWIGCIYVGSHVNTYYANWAKGRFTISRDNSKNTVYLQMNSLRAEDTAVYYCATSGSSVLYFKFWGQGTLVTVSSGGGGSGGGGSEVQLVESGGGLVQPGGSLRLSCAASGFSLSSYDMSWVRQAPGKCLAWIGASYASGPTYYASWAKGRFTISRDNSKNTVYLQMNSLRAEDTATYFCARGGWTGTSHSNIWGQGTLVTVSSGGGGSGGGGSGGGGSEVQLVESGGGLVQPGGSLRLSCAASGFSLSSNAMGWVRQAPGKGLEYIGIISVGGFTYYASWAKGRFTISRDNSKNTVYLQMNSLRAEDTATYFCARDRHGGDSSGAFYLWGQGTLVTVSS
notes: Hetero-dimeric MATCH, parallel; diS in anti-CD3 domain, 15 aa GS-linker
B4: PRO741 (other)
chain 1: DIQMTQSPSSLSASVGDRVTITCQASENIYSFLAWYQQKPGKAPKLLIYSASKLAAGVPSRFSGSGSGTDFTLTISSLQPEDFATYYCQQTNRYSNPDIYNVFGTGTKVTVLGGGGGSGGGGSGGGGSGGGGSEVQLVESGGGLVQPGGSLRLSCAASGIDFNSNYYMCWVRQAPGKGLEWIGCIYVGSHVNTYYANWAKGRFTISRDNSKNTVYLQMNSLRAEDTAVYYCATSGSSVLYFKFWGQGTLVTVSSGGGGSGGGGSDIQMTQSPSSLSASVGDRVTITCQSSQSVFSNNYLAWFQQKPGQSPKRLIYSASTLASGVPSRFSGSGSGTDFTLTISSLQPEDFATYYCLGSYACSSADCYVFGCGTKVTVLGSGGGGSGGGGSDVVMTQSPSSLSASVGDRVTITCQASQIISSRSAWYQQKPGQPPKLLIYQASKLASGVPSRFSGSGSGTDFTLTISSLQPEDFATYYCQCTYIDSNFGAFGGGTKLTVLG
chain 2: DIQMTQSPSSLSASVGDRVTITCQASENIYSFLAWYQQKPGKAPKLLIYSASKLAAGVPSRFSGSGSGTDFTLTISSLQPEDFATYYCQQTNRYSNPDIYNVFGTGTKVTVLGGGGGSGGGGSGGGGSGGGGSEVQLVESGGGLVQPGGSLRLSCAASGIDFNSNYYMCWVRQAPGKGLEWIGCIYVGSHVNTYYANWAKGRFTISRDNSKNTVYLQMNSLRAEDTAVYYCATSGSSVLYFKFWGQGTLVTVSSGGGGSGGGGSEVQLVESGGGLVQPGGSLRLSCAASGFSFSSSYWICWVRQAPGKGLEWVGCVFTGDGTTYYASWAKGRFTISRDNSKNTVYLQMNSLRAEDTATYFCARPVSVYYYGMDLWGQGTLVTVSSSGGGGSGGGGSEVQLVESGGGLVQPGGSLRLSCAASGFSLSSYDMSWVRQAPGKCLAWIGASYASGPTYYASWAKGRFTISRDNSKNTVYLQMNSLRAEDTATYFCARGGWTGTSHSNIWGQGTLVTVSS
notes: Hetero-dimeric MATCH, anti-parallel; diS in anti-CD3 domain, 11 aa GS-linker, alternative anti-HSA
B5: PRO737 (other)
chain 1: DIQMTQSPSSLSASVGDRVTITCQASENIYSFLAWYQQKPGKAPKLLIYSASKLAAGVPSRFSGSGSGTDFTLTISSLQPEDFATYYCQQTNRYSNPDIYNVFGTGTKVTVLGGGGGSGGGGSGGGGSGGGGSEVQLVESGGGLVQPGGSLRLSCAASGIDFNSNYYMCWVRQAPGKGLEWIGCIYVGSHVNTYYANWAKGRFTISRDNSKNTVYLQMNSLRAEDTAVYYCATSGSSVLYFKFWGQGTLVTVSSGGGGSGGGGSDIQMTQSPSSLSASVGDRVTITCQSSESVYNNKRLSWYQQKPGKAPKLLIYTASSLASGVPSRFSGSGSGTDFTLTISSLQPEDFATYYCQGEFTCSNADCFTFGCGTKVTVLGGGGGSGGGGSGGGGSDIQMTQSPSSLSASVGDRVTITCQSSESVYSNNQLSWYQQKPGQPPKLLIYDASDLASGVPSRFSGSGSGTDFTLTISSLQPEDFATYYCAGGFSSSSDTAFGGGTKLTVLG
chain 2: DIQMTQSPSSLSASVGDRVTITCQASENIYSFLAWYQQKPGKAPKLLIYSASKLAAGVPSRFSGSGSGTDFTLTISSLQPEDFATYYCQQTNRYSNPDIYNVFGTGTKVTVLGGGGGSGGGGSGGGGSGGGGSEVQLVESGGGLVQPGGSLRLSCAASGIDFNSNYYMCWVRQAPGKGLEWIGCIYVGSHVNTYYANWAKGRFTISRDNSKNTVYLQMNSLRAEDTAVYYCATSGSSVLYFKFWGQGTLVTVSSGGGGSGGGGSEVQLVESGGGLVQPGGSLRLSCAASGFPLSSYAMIWVRQAPGKCLEWIGMILRAGNIYYASWVKGRFTISRDNSKNTVYLQMNSLRAEDTAVYYCARRHYNREGYPIGIGDLWGQGTLVTVSSGGGGSGGGGSGGGGSEVQLVESGGGLVQPGGSLRLSCAASGFSLSSNAMGWVRQAPGKGLEYIGIISVGGFTYYASWAKGRFTISRDNSKNTVYLQMNSLRAEDTATYFCARDRHGGDSSGAFYLWGQGTLVTVSS
notes: Hetero-dimeric MATCH, parallel; diS in anti-CD3 domain, 15 aa GS-linker, alternative anti-CD3

These binders were tested against human IL23R IL12Rbeta 1 heterodimer on CHO-K1 cells (human, UniProt Q5VWK5 24-629; P42701 24-662) (assay: cell-based or functional assay).

NFAT assay EC50 (T-cell activation, 5 h)	Binder
152 pM	B1
1450 pM	B2

What follows are binders tested against T3, human CD3 gamma-epsilon single-chain (human, UniProt P09693 23-103; P07766 23-118) (assay: SPR, target immobilised by amine coupling, binder as analyte).
T3 construct: Recombinant protein immobilised on the SPR chip

Kd	Binder
26500 pM	B1
11100 pM	B3
7580 pM	B4
8300 pM	B2
24000 pM	B5

Each binder was assayed against T4, human serum albumin (human, UniProt P02768 25-609) in the same assay as above.
T4 construct: also called HSA

Kd	Binder
495 pM	B1
635 pM	B3
338 pM	B4
325 pM	B2
493 pM	B5

Each binder was assayed against T1, cyno CD3 in the same assay as above.

Kd	Binder
47700 pM	B1
8370 pM	B3
1080 pM	B4
6640 pM	B2
56700 pM	B5

What follows are binders tested against T2, human IL-23 receptor ECD in the same assay as above.

Kd	Binder
36.6 pM	B1
48.2 pM	B3
37.8 pM	B4
38.3 pM	B2
33.4 pM	B5
